Laboratory results as given in article PMC6171530 (Nature chemical biology, 2018).

B1: His6-RNR-α (enzyme, human, UniProt P23921 1-792, looked up)
chain: MHVIKRDGRQERVMFDKITSRIQKLCYGLNMDFVDPAQITMKVIQGLYSGVTTVELDTLAAETAATLTTKHPDYAILAARIAVSNLHKETKKVFSDVMEDLYNYINPHNGKHSPMVAKSTLDIVLANKDRLNSAIIYDRDFSYNYFGFKTLERSYLLKINGKVAERPQHMLMRVSVGIHKEDIDAAIETYNLLSERWFTHASPTLFNAGTNRPQLSSCFLLSMKDDSIEGIYDTLKQCALISKSAGGIGVAVSCIRATGSYIAGTNGNSNGLVPMLRVYNNTARYVDQGGNKRPGAFAIYLEPWHLDIFEFLDLKKNTGKEEQRARDLFFALWIPDLFMKRVETNQDWSLMCPNECPGLDEVWGEEFEKLYASYEKQGRVRKVVKAQQLWYAIIESQTETGTPYMLYKDSCNRKSNQQNLGTIKCSNLCTEIVEYTSKDEVAVCNLASLALNMYVTSEHTYDFKKLAEVTKVVVRNLNKIIDINYYPVPEACLSNKRHRPIGIGVQGLADAFILMRYPFESAEAQLLNKQIFETIYYGALEASCDLAKEQGPYETYEGSPVSKGILQYDMWNVTPTDLWDWKVLKEKIAKYGIRNSLLIAPMPTASTAQILGNNESIEPYTSNIYTRRVLSGEFQIVNPHLLKDLTERGLWHEEMKNQIIACNGSIQSIPEIPDDLKQLYKTVWEISQKTVLKMAAERGAFIDQSQSLNIHIAEPNYGKLTSMHFYGWKQGLKTGMYYLRTRPAANPIQFTLNKEKLKDKEKVSKEEEEKERNTAAMVCSLENRDECLMCGS
B2: His6-HA-HNH&APIM (domain or fragment, UniProt Q5FWF4 929-1079, looked up)
chain: NSWDSRFCSLKCQEEFWIRSNNSYLRAKVFETEHGVCQLCNVNAQELFLRLRDAPKSQRKNLLYATWTSKLPLEQLNEMIRNPGEGHFWQVDHIKPVYGGGGQCSLDNLQTLCTVCHKERTARQAKERSQVRRQSLASKHGSDITRFLVKK

Columns and labels:
[1] = biological target: the molecule itself; test: negative-stain electron microscopy
His6-RNR-α = biological target: B1; test: pull-down

| Binder | stoichiometry N [1] | binding result (His6-RNR-α) |
| --- | --- | --- |
| B1 | 6 |  |
| B2 |  | binds |
